# Source: patent publication EP4792821A2 (Beijing Youcare Kechuang Pharmaceutical Technology Co., Ltd., dated 2026)
# The star is where a group is joined. Succinyl(4-O-cholesteryl) = CC(C)CCC[C@@H](C)[C@H]1CC[C@H]2[C@@H]3CC=C4C[C@@H](OC(=O)CCC(=O)*)CC[C@]4(C)[C@H]3CC[C@]12C
# Biological target: F protein of RSV A long virus strain (Respiratory Syncytial Virus (RSV) A …, UniProt P12568 26-574)
# Test: cell-based or functional assay
# F protein of RSV A long virus strain, sequence (P12568 26-574): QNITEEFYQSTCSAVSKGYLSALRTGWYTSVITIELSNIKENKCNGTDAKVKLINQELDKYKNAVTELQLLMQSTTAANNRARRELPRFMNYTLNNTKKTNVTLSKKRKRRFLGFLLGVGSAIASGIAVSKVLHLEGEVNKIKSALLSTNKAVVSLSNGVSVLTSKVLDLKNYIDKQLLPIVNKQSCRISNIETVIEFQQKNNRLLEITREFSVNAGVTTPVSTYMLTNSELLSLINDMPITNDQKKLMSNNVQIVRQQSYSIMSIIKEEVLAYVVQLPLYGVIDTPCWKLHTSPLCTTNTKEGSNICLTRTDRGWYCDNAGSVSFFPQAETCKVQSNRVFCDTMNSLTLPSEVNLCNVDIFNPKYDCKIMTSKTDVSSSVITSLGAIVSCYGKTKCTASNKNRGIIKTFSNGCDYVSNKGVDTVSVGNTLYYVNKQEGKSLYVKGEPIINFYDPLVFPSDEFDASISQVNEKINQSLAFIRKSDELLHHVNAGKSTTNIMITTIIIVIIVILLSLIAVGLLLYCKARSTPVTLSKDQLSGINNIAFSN
row,Binder,"IC50/nM, plaque reduction, RSV A long on HEp-2 cells (Table 2, Cell fusion inhibition activity)"
1,Ac-DDEFNQKINEVNEKIEEILKKIEESDRKLEESDKKA-NH2 [Compound 2],> 8000 nM
2,Ac-SDEQVNEKINQSLAFIRRIRKLLHNEAAAKK(Succinyl(4-O-cholesteryl))-NH2 (SMILES CC[C@H](C)[C@H](NC(=O)[C@H](Cc1ccccc1)NC(=O)[C@H](C)NC(=O)[C@H](CC(C)C)NC(=O)[C@H](CO)NC(=O)[C@H](CCC(N)=O)NC(=O)[C@H](CC(N)=O)NC(=O)[C@@H](NC(=O)[C@H](CCCCN)NC(=O)[C@H](CCC(=O)O)NC(=O)[C@H](CC(N)=O)NC(=O)[C@@H](NC(=O)[C@H](CCC(N)=O)NC(=O)[C@H](CCC(=O)O)NC(=O)[C@H](CC(=O)O)NC(=O)[C@H](CO)NC(C)=O)C(C)C)[C@@H](C)CC)C(=O)N[C@@H](CCCNC(=N)N)C(=O)N[C@@H](CCCNC(=N)N)C(=O)N[C@H](C(=O)N[C@@H](CCCNC(=N)N)C(=O)N[C@@H](CCCCN)C(=O)N[C@@H](CC(C)C)C(=O)N[C@@H](CC(C)C)C(=O)N[C@@H](Cc1c[nH]cn1)C(=O)N[C@@H](CC(N)=O)C(=O)N[C@@H](CCC(=O)O)C(=O)N[C@@H](C)C(=O)N[C@@H](C)C(=O)N[C@@H](C)C(=O)N[C@@H](CCCCN)C(=O)N[C@@H](CCCCNC(=O)CCC(=O)O[C@H]1CC[C@@]2(C)C(=CC[C@H]3[C@@H]4CC[C@H]([C@H](C)CCCC(C)C)[C@@]4(C)CC[C@@H]32)C1)C(N)=O)[C@@H](C)CC) [Compound 31],2220 nM
3,Ac-WDEFDKKIEEVNKKIEESLKKIEESDKKLEEVNKKLGSGSGK(Succinyl(4-O-cholesteryl))-NH2 [Compound 11],99.1 nM
4,Ac-FDFDEFDASISQVNEKINESLAFIRLAFIRKSDELLEAAAKK-NH2 [Compound 24],2650 nM
5,Ac-FDASIEEVNRRIEESLRRIEESDRRLEVNKKA-NH2 [Compound 1],1360 nM
6,Ac-FDASIEEVNRRIEESLRRIEESDRRLEAAAKK(Succinyl(4-O-cholesteryl))-NH2 (SMILES CC[C@H](C)[C@H](NC(=O)[C@H](CO)NC(=O)[C@H](C)NC(=O)[C@H](CC(=O)O)NC(=O)[C@H](Cc1ccccc1)NC(C)=O)C(=O)N[C@@H](CCC(=O)O)C(=O)N[C@@H](CCC(=O)O)C(=O)N[C@H](C(=O)N[C@@H](CC(N)=O)C(=O)N[C@@H](CCCNC(=N)N)C(=O)N[C@@H](CCCNC(=N)N)C(=O)N[C@H](C(=O)N[C@@H](CCC(=O)O)C(=O)N[C@@H](CCC(=O)O)C(=O)N[C@@H](CO)C(=O)N[C@@H](CC(C)C)C(=O)N[C@@H](CCCNC(=N)N)C(=O)N[C@@H](CCCNC(=N)N)C(=O)N[C@H](C(=O)N[C@@H](CCC(=O)O)C(=O)N[C@@H](CCC(=O)O)C(=O)N[C@@H](CO)C(=O)N[C@@H](CC(=O)O)C(=O)N[C@@H](CCCNC(=N)N)C(=O)N[C@@H](CCCNC(=N)N)C(=O)N[C@@H](CC(C)C)C(=O)N[C@@H](CCC(=O)O)C(=O)N[C@@H](C)C(=O)N[C@@H](C)C(=O)N[C@@H](C)C(=O)N[C@@H](CCCCN)C(=O)N[C@@H](CCCCNC(=O)CCC(=O)O[C@H]1CC[C@@]2(C)C(=CC[C@H]3[C@@H]4CC[C@H]([C@H](C)CCCC(C)C)[C@@]4(C)CC[C@@H]32)C1)C(N)=O)[C@@H](C)CC)[C@@H](C)CC)C(C)C) [Compound 19],16.2 nM
7,Ac-KIEEVNKKIEESLKKIEESDKKLEEVNKKLEAAAKK(Succinyl(4-O-cholesteryl))-NH2 (SMILES CC[C@H](C)[C@H](NC(=O)[C@H](CCCCN)NC(C)=O)C(=O)N[C@@H](CCC(=O)O)C(=O)N[C@@H](CCC(=O)O)C(=O)N[C@H](C(=O)N[C@@H](CC(N)=O)C(=O)N[C@@H](CCCCN)C(=O)N[C@@H](CCCCN)C(=O)N[C@H](C(=O)N[C@@H](CCC(=O)O)C(=O)N[C@@H](CCC(=O)O)C(=O)N[C@@H](CO)C(=O)N[C@@H](CC(C)C)C(=O)N[C@@H](CCCCN)C(=O)N[C@@H](CCCCN)C(=O)N[C@H](C(=O)N[C@@H](CCC(=O)O)C(=O)N[C@@H](CCC(=O)O)C(=O)N[C@@H](CO)C(=O)N[C@@H](CC(=O)O)C(=O)N[C@@H](CCCCN)C(=O)N[C@@H](CCCCN)C(=O)N[C@@H](CC(C)C)C(=O)N[C@@H](CCC(=O)O)C(=O)N[C@@H](CCC(=O)O)C(=O)N[C@H](C(=O)N[C@@H](CC(N)=O)C(=O)N[C@@H](CCCCN)C(=O)N[C@@H](CCCCN)C(=O)N[C@@H](CC(C)C)C(=O)N[C@@H](CCC(=O)O)C(=O)N[C@@H](C)C(=O)N[C@@H](C)C(=O)N[C@@H](C)C(=O)N[C@@H](CCCCN)C(=O)N[C@@H](CCCCNC(=O)CCC(=O)O[C@H]1CC[C@@]2(C)C(=CC[C@H]3[C@@H]4CC[C@H]([C@H](C)CCCC(C)C)[C@@]4(C)CC[C@@H]32)C1)C(N)=O)C(C)C)[C@@H](C)CC)[C@@H](C)CC)C(C)C) [Compound 10],18.1 nM
8,Ac-DEFDKKKIEEVNKKIEESLKKIEESDKKLEEV-NH2 [Compound 3],4430 nM
9,Ac-FDASIEEVNRRIEESLRRIEESDRRLEVNKKAGSGSGK(Succinyl(4-O-cholesteryl))-NH2 (SMILES CC[C@H](C)[C@H](NC(=O)[C@H](CO)NC(=O)[C@H](C)NC(=O)[C@H](CC(=O)O)NC(=O)[C@H](Cc1ccccc1)NC(C)=O)C(=O)N[C@@H](CCC(=O)O)C(=O)N[C@@H](CCC(=O)O)C(=O)N[C@H](C(=O)N[C@@H](CC(N)=O)C(=O)N[C@@H](CCCNC(=N)N)C(=O)N[C@@H](CCCNC(=N)N)C(=O)N[C@H](C(=O)N[C@@H](CCC(=O)O)C(=O)N[C@@H](CCC(=O)O)C(=O)N[C@@H](CO)C(=O)N[C@@H](CC(C)C)C(=O)N[C@@H](CCCNC(=N)N)C(=O)N[C@@H](CCCNC(=N)N)C(=O)N[C@H](C(=O)N[C@@H](CCC(=O)O)C(=O)N[C@@H](CCC(=O)O)C(=O)N[C@@H](CO)C(=O)N[C@@H](CC(=O)O)C(=O)N[C@@H](CCCNC(=N)N)C(=O)N[C@@H](CCCNC(=N)N)C(=O)N[C@@H](CC(C)C)C(=O)N[C@@H](CCC(=O)O)C(=O)N[C@H](C(=O)N[C@@H](CC(N)=O)C(=O)N[C@@H](CCCCN)C(=O)N[C@@H](CCCCN)C(=O)N[C@@H](C)C(=O)NCC(=O)N[C@@H](CO)C(=O)NCC(=O)N[C@@H](CO)C(=O)NCC(=O)N[C@@H](CCCCNC(=O)CCC(=O)O[C@H]1CC[C@@]2(C)C(=CC[C@H]3[C@@H]4CC[C@H]([C@H](C)CCCC(C)C)[C@@]4(C)CC[C@@H]32)C1)C(N)=O)C(C)C)[C@@H](C)CC)[C@@H](C)CC)C(C)C) [Compound 12],28.4 nM
10,Ac-YDELVFDASQVNEKINQSLEKIRKSDELLHNV-NH2 [Compound 23],2330 nM
